Experimental data reported in paper PMC8699845.

What was measured:
[1] = target: Recombinant human Wnt Inhibitory Factor 1 (human) (UniProt Q9Y5W5); assay: SPR; BIACORE X; WIF1 or WIF domain amine-coupled to CM5 chip, rhShh injected at 20 µL/min; 20 mM Tris, 150 mM NaCl, 5 mM EDTA, 0.005% Tween 20, 100 µM CHAPS, pH 7.4; 1:1 Langmuir fit
[2] = target: WIF domain of human WIF1 protein (human) (UniProt Q9Y5W5); assay: as above
[3] = target: dually lipidated recombinant human sonic hedgehog (human)

Chain of UniProt Q9Y5W5 (Q9Y5W5 29-379): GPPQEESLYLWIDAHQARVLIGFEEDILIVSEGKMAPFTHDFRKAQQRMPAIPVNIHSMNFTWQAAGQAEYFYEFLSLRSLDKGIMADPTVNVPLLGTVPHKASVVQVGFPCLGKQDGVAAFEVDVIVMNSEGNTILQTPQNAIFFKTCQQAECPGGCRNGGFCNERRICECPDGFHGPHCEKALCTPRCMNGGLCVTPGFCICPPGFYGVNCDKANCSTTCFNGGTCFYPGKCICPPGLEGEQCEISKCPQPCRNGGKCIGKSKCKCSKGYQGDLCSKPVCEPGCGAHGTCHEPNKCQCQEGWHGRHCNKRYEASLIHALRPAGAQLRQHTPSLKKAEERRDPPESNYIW

Molecule: dually lipidated recombinant human sonic hedgehog (ligand)
- Kd [1]: 2.06 nM
- koff [1]: 0.000141 s⁻¹
- kon [1]: 68500 M⁻¹ s⁻¹
- Kd [2]: 1.18 nM
- koff [2]: 5.03e-05 s⁻¹
- kon [2]: 42600 M⁻¹ s⁻¹

B1: WIF domain of human WIF1 protein (domain or fragment)
chain: LWIDAHQARVLIGFEEDILIVSEGKMAPFTHDFRKAQQRMPAIPVNIHSMNFTWQAAGQAEYFYEFLSLRSLDKGIMADPTVNVPLLGTVPHKASVVQVGFPCLGKQDGVAAFEVDVIVMNSEGNTILQTPQNAIFFKTC
- Gli luciferase reporter in Gli Reporter-NIH3T3 cells; inhibition of the signaling activity of 0.2 nM rhShh preincubated with 0-50 nM WIF domain; EC50 [3]: 2.75 nM
